Experimental data from patent US20070244048A1 (published 2007).
No end group written: not given here.

Tests used:
mouse NMUR1-CTG [1] = target: T1, mouse NMUR1-CTG (mouse, UniProt O55040 1-428); assay: cell-based or functional assay
T1 sequence (looked up): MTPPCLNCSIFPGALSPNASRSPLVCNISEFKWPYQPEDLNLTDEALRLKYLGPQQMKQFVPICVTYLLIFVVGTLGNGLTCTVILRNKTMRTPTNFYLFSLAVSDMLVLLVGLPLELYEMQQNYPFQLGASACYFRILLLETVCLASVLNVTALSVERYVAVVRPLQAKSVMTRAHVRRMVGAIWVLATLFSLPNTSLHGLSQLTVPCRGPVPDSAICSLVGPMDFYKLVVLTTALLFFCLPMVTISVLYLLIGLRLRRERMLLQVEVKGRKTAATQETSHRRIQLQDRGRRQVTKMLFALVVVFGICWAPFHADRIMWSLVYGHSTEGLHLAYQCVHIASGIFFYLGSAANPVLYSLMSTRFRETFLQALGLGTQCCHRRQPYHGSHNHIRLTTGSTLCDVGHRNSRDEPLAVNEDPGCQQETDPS

rat NMUR2 [2] = target: T2, rat NMUR2 (rat, UniProt Q9ESQ4 1-395); assay: cell-based or functional assay
human NMUR1 [3] = target: T3, human NMUR1 (human, UniProt Q9HB89 1-426); assay: 125I-hNMU-25 displacement, cell membranes
T3 construct: whole, on cells; Stably expressed in cells (FLIPR); also called hNMUR1; human R1
T3 sequence (looked up): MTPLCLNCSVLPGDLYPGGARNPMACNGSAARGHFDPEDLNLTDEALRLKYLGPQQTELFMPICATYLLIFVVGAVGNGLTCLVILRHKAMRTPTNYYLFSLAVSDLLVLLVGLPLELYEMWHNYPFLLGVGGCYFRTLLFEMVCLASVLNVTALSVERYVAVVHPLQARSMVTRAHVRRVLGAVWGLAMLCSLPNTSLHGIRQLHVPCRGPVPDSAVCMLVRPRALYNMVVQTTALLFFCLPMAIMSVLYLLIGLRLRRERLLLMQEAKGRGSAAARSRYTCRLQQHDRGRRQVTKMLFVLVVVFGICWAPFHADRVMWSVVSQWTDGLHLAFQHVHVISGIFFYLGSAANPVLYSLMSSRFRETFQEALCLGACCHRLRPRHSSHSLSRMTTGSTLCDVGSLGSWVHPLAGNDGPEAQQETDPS

human NMUR2 [4] = target: T4, human NMUR2 (human, UniProt Q9GZQ4 1-415); assay: 125I-hNMU-25 displacement, cell membranes
T4 construct: whole, on cells; Stably expressed in cells (FLIPR); also called hNMUR2; human R2

mouse NMUR1-ATG = target: T5, mouse NMUR1-ATG (mouse, UniProt O55040 1-428); assay: 125I-hNMU-25 displacement, cell membranes
T5 construct: whole, on cells; Cell line with engineered ATG start codon in place of the genomic CTG; also called mouse R1-ATG
T5 sequence (looked up): T1 sequence (looked up)

mouse NMUR1-CTG [5] = target: T1, mouse NMUR1-CTG; assay: 125I-hNMU-25 displacement, cell membranes
mouse NMUR2 = target: T6, mouse NMUR2 (mouse, UniProt Q8BZ39 1-395); assay: 125I-hNMU-25 displacement, cell membranes
T6 construct: whole, on cells; also called mouse R2

rat NMUR1-ATG = target: T7, rat NMUR1-ATG (rat, UniProt Q9JJI5 1-425); assay: 125I-hNMU-25 displacement, cell membranes
T7 construct: whole, on cells; Cell line with engineered ATG start codon in place of the genomic TTG; also called rat R1-ATG
T7 sequence (looked up): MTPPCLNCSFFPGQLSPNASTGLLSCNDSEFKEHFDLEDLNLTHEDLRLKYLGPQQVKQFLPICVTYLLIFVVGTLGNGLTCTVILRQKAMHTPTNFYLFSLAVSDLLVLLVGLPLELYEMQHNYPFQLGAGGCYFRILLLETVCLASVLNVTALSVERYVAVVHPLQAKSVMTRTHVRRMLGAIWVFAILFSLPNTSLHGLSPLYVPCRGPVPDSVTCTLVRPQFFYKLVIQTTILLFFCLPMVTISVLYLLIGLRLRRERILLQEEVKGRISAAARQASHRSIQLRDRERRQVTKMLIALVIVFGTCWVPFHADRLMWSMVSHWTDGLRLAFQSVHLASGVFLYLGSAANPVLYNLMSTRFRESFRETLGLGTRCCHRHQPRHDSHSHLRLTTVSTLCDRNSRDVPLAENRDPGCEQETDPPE

rat NMUR1-TTG = target: T8, rat NMUR1-TTG (rat, UniProt Q9JJI5 1-425); assay: 125I-hNMU-25 displacement, cell membranes
T8 construct: whole, on cells; Cell line with the start codon (TTG) as predicted from genomic databases; also called rat R1-TTG
T8 sequence (looked up): T7 sequence (looked up)

rat NMUR2 [6] = target: T2, rat NMUR2; assay: 125I-hNMU-25 displacement, cell membranes
human NMUR1 [7] = target: T3, human NMUR1; assay: 125I-hNMU-25 displacement, HEK cell membranes
Summary of the method: (§1)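 HEK cell membranes (2-5 μg) incubated with […] ¹²⁵I-hNMU-25 and peptides for 80 min at room temperature in TrisCl pH 7.4 buffer with MgCl₂, EDTA, bacitracin and phosphoramidon. Bound ligand collected by filtration and scintillation counting; nonspecific binding with 1 μM hNMU-25. IC₅₀ from curve fitting.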

human NMUR2 [8] = target: T4, human NMUR2; assay: 125I-hNMU-25 displacement, HEK cell membranes
Summary of the method: as §1

T4 sequence (Q9GZQ4 whole entry): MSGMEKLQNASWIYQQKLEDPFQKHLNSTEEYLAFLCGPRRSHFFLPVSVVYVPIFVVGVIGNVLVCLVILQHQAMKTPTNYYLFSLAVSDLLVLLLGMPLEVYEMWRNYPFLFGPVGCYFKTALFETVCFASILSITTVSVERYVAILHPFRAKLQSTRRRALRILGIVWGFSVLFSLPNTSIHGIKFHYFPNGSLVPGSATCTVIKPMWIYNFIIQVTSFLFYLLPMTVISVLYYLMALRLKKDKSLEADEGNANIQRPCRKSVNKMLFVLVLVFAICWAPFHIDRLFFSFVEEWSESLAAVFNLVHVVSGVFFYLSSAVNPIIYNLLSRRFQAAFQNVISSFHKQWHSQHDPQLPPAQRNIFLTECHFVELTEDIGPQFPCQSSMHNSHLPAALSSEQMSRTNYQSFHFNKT
T2 sequence (Q9ESQ4 whole entry): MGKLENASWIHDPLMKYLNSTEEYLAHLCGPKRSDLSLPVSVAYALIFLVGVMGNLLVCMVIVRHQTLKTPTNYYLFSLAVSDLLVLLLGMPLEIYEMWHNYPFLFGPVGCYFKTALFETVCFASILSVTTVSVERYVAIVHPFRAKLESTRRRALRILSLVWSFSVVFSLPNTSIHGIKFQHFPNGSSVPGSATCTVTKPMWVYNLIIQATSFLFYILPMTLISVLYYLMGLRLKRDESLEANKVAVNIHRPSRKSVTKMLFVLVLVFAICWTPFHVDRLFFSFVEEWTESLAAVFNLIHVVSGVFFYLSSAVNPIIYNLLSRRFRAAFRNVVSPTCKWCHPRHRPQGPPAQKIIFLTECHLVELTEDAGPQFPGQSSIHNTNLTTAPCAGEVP
T6 sequence (Q8BZ39 whole entry): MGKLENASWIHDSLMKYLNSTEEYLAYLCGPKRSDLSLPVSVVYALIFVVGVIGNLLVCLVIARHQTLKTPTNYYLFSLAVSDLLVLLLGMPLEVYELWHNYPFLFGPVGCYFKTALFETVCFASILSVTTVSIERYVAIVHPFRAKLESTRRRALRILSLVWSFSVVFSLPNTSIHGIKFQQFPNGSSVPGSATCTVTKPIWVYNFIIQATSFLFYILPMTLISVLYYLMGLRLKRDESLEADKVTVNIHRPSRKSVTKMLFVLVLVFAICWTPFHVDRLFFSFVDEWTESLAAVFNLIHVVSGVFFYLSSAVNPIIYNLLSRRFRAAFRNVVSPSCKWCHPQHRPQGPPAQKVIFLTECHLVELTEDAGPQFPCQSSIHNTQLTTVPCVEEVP

Binder: FRVDEEFQSPFASQSRGYFLFRPRN-NH2 (also called hNMU-25; native hNMU) [human NMU-25]
- IC50 (nM), functional (mouse NMUR1-CTG [1]): 2.9 nM
- IC50 (nM), functional (rat NMUR2 [2]): 1.6 nM
- IC50 (human NMUR1 [3]): 0.14 nM
- IC50 (human NMUR2 [4]): 0.056 nM
- IC50 (mouse NMUR1-ATG): 0.4 nM
- IC50 (mouse NMUR1-CTG [5]): 0.15 nM
- IC50 (mouse NMUR2): 0.2 nM
- IC50 (rat NMUR1-ATG): 1.2 nM
- IC50 (rat NMUR1-TTG): 0.2 nM
- IC50 (rat NMUR2 [6]): 0.6 nM
- % activity (binding) (human NMUR1 [7]): 100%
- IC50 (human NMUR1 [7]): 0.47 nM
- % activity (binding) (human NMUR2 [8]): 100%
- IC50 (human NMUR2 [8]): 0.19 nM
